The subject of this series is Escherichia coli TOP10. In words: shrunken log2 fold change of peptide-encoding DNA abundance (4.5 h post-induction vs induction); higher = less antimicrobial activity (less host growth inhibition). The conditions noted are these: time post-induction: 4.5 h; library: site-saturation at positions 5, 18, 19, 20.
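Also: peptides expressed intracellularly from a pBAD plasmid library in pooled LB shake-flask culture, induced with 0.3% L-arabinose, DNA abundance read by NGS, three biological replicates, DESeq2 with apeglm shrinkage.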

Turning to RRIRHRPPRLPRPRPRPESRPRP, the “shrunken log2 fold change” value was -0.17.

As for RRIRRRPPRLPRPRPRPFHNPRP, the “shrunken log2 fold change” value was 0.00548.

Consider RRIRLRPPRLPRPRPRPTHVPRP, for which the “shrunken log2 fold change” value stood at 0.329.

As to RRIRRRPPRLPRPRPRPENMPRP, the “shrunken log2 fold change” value stood at 0.0592.

Turning to RRIRRRPPRLPRPRPRPHVYPRP, the “shrunken log2 fold change” value was -0.341.

Regarding RRIRMRPPRLPRPRPRPREIPRP, the “shrunken log2 fold change” value was 1.35.

For RRIRARPPRLPRPRPRPHEKPRP, the “shrunken log2 fold change” value was 0.358.

As to RRIRMRPPRLPRPRPRPDLWPRP, the “shrunken log2 fold change” value is 2.21.

In the case of RRIRIRPPRLPRPRPRPGNDPRP, the “shrunken log2 fold change” value is -0.0662.

With RRIRRRPPRLPRPRPRPYMYPRP, the “shrunken log2 fold change” value is -0.74.

As to RRIRKRPPRLPRPRPRPHGQPRP, the “shrunken log2 fold change” value is -0.0371.

For the sequence RRIRKRPPRLPRPRPRPNCKPRP, the “shrunken log2 fold change” value stood at 0.495.

For RRIRIRPPRLPRPRPRPEHRPRP, the “shrunken log2 fold change” value was -0.051.

In the case of RRIRVRPPRLPRPRPRPNKQPRP, the “shrunken log2 fold change” value came to 0.0173.

For RRIRARPPRLPRPRPRPMKKPRP, the “shrunken log2 fold change” value stood at 0.143.

Take RRIRIRPPRLPRPRPRPFCTPRP: the “shrunken log2 fold change” value was -0.542.

Turning to RRIRSRPPRLPRPRPRPFVQPRP, the “shrunken log2 fold change” value is -0.496.

On to RRIRERPPRLPRPRPRPLTMPRP, for which the “shrunken log2 fold change” value was -0.308.

For RRIRDRPPRLPRPRPRPIKVPRP, the “shrunken log2 fold change” value turned out to be 0.00881.

On to RRIRCRPPRLPRPRPRPLRFPRP, for which the “shrunken log2 fold change” value was determined as 0.0668.

Turning to RRIRERPPRLPRPRPRPYYPPRP, the “shrunken log2 fold change” value is -0.14.

Consider RRIRHRPPRLPRPRPRPEGTPRP, for which the “shrunken log2 fold change” value is -0.0282.

In the case of RRIRTRPPRLPRPRPRPSEDPRP, the “shrunken log2 fold change” value was -0.494.

In the case of RRIRTRPPRLPRPRPRPEHFPRP, the “shrunken log2 fold change” value was -0.115.

Turning to RRIRVRPPRLPRPRPRPNIEPRP, the “shrunken log2 fold change” value was -0.616.

RRIRYRPPRLPRPRPRPRWGPRP: the “shrunken log2 fold change” value stood at 0.12.

With RRIRRRPPRLPRPRPRPDQPPRP, the “shrunken log2 fold change” value stood at 0.0262.

Turning to RRIRQRPPRLPRPRPRPTVHPRP, the “shrunken log2 fold change” value was -0.367.

Consider RRIRMRPPRLPRPRPRPRDWPRP, for which the “shrunken log2 fold change” value turned out to be 1.31.

Regarding RRIRLRPPRLPRPRPRPGMIPRP, the “shrunken log2 fold change” value is -0.419.

In the case of RRIRDRPPRLPRPRPRPMVMPRP, the “shrunken log2 fold change” value turned out to be 0.133.

For RRIRRRPPRLPRPRPRPHDKPRP, the “shrunken log2 fold change” value is 0.302.

Regarding RRIRWRPPRLPRPRPRPQIGPRP, the “shrunken log2 fold change” value stood at 0.0807.

As to RRIRSRPPRLPRPRPRPHHFPRP, the “shrunken log2 fold change” value stood at 0.0761.

Consider RRIRLRPPRLPRPRPRPLMSPRP, for which the “shrunken log2 fold change” value was -0.0608.

For the sequence RRIRDRPPRLPRPRPRPFTRPRP, the “shrunken log2 fold change” value is -0.242.

For the sequence RRIRWRPPRLPRPRPRPRIMPRP, the “shrunken log2 fold change” value worked out at 0.12.

On to RRIRERPPRLPRPRPRPVGTPRP, for which the “shrunken log2 fold change” value was found to be 0.0306.

In the case of RRIRTRPPRLPRPRPRPHLEPRP, the “shrunken log2 fold change” value is -0.0891.

Take RRIRRRPPRLPRPRPRPTCTPRP: the “shrunken log2 fold change” value came to 0.165.

For the sequence RRIRQRPPRLPRPRPRPFCCPRP, the “shrunken log2 fold change” value is -0.114.

Consider RRIRTRPPRLPRPRPRPVYKPRP, for which the “shrunken log2 fold change” value is -0.188.

Turning to RRIRERPPRLPRPRPRPETWPRP, the “shrunken log2 fold change” value was -0.0594.

Take RRIRMRPPRLPRPRPRPWGAPRP: the “shrunken log2 fold change” value was 0.698.

RRIRMRPPRLPRPRPRPIQVPRP: the “shrunken log2 fold change” value is -0.00663.

Consider RRIRERPPRLPRPRPRPDMMPRP, for which the “shrunken log2 fold change” value came out at 0.0556.

Regarding RRIRERPPRLPRPRPRPGVWPRP, the “shrunken log2 fold change” value is 0.44.

Consider RRIRMRPPRLPRPRPRPFYTPRP, for which the “shrunken log2 fold change” value was -0.364.

Consider RRIRTRPPRLPRPRPRPVNWPRP, for which the “shrunken log2 fold change” value was 0.0495.

With RRIRMRPPRLPRPRPRPVFAPRP, the “shrunken log2 fold change” value amounted to 0.378.

On to RRIRPRPPRLPRPRPRPTMSPRP, for which the “shrunken log2 fold change” value came to 0.0176.

For the sequence RRIRFRPPRLPRPRPRPNCGPRP, the “shrunken log2 fold change” value was -0.0249.

Consider RRIRMRPPRLPRPRPRPMMMPRP, for which the “shrunken log2 fold change” value is -0.0717.

For the sequence RRIRWRPPRLPRPRPRPEHFPRP, the “shrunken log2 fold change” value came out at 0.00426.

Turning to RRIRRRPPRLPRPRPRPAVKPRP, the “shrunken log2 fold change” value stood at 0.0474.

Consider RRIRRRPPRLPRPRPRPIWWPRP, for which the “shrunken log2 fold change” value is 0.58.

Turning to RRIRVRPPRLPRPRPRPQCIPRP, the “shrunken log2 fold change” value was determined as 0.101.

RRIRLRPPRLPRPRPRPKWSPRP: the “shrunken log2 fold change” value is -0.171.

Turning to RRIRNRPPRLPRPRPRPQYMPRP, the “shrunken log2 fold change” value was -1.16.

As for RRIRKRPPRLPRPRPRPLDWPRP, the “shrunken log2 fold change” value was 0.474.

As for RRIRPRPPRLPRPRPRPGWYPRP, the “shrunken log2 fold change” value turned out to be 0.075.

In the case of RRIRWRPPRLPRPRPRPGVTPRP, the “shrunken log2 fold change” value turned out to be 0.586.

With RRIRERPPRLPRPRPRPAIQPRP, the “shrunken log2 fold change” value is -0.337.

Take RRIRHRPPRLPRPRPRPTSNPRP: the “shrunken log2 fold change” value was -0.448.

For RRIRDRPPRLPRPRPRPKWWPRP, the “shrunken log2 fold change” value stood at 0.00489.

In the case of RRIRPRPPRLPRPRPRPVIGPRP, the “shrunken log2 fold change” value came to 0.0389.

Consider RRIRIRPPRLPRPRPRPYYRPRP, for which the “shrunken log2 fold change” value was -0.105.

On to RRIRMRPPRLPRPRPRPACRPRP, for which the “shrunken log2 fold change” value worked out at 0.633.

With RRIRVRPPRLPRPRPRPMRYPRP, the “shrunken log2 fold change” value was 0.453.

RRIRGRPPRLPRPRPRPNEMPRP: the “shrunken log2 fold change” value was found to be 0.703.

On to RRIRIRPPRLPRPRPRPPWDPRP, for which the “shrunken log2 fold change” value stood at 0.0808.

Take RRIRKRPPRLPRPRPRPIAYPRP: the “shrunken log2 fold change” value was -0.0799.

Take RRIRMRPPRLPRPRPRPMRMPRP: the “shrunken log2 fold change” value stood at 0.759.

Regarding RRIRCRPPRLPRPRPRPDIRPRP, the “shrunken log2 fold change” value was determined as 0.121.

In the case of RRIRHRPPRLPRPRPRPDQLPRP, the “shrunken log2 fold change” value is -0.51.

As for RRIRPRPPRLPRPRPRPGHEPRP, the “shrunken log2 fold change” value was -0.202.

RRIRMRPPRLPRPRPRPNRYPRP: the “shrunken log2 fold change” value was 0.166.

As for RRIRDRPPRLPRPRPRPALCPRP, the “shrunken log2 fold change” value came to 0.225.

Turning to RRIRLRPPRLPRPRPRPKGKPRP, the “shrunken log2 fold change” value is -0.106.

For the sequence RRIRGRPPRLPRPRPRPIRSPRP, the “shrunken log2 fold change” value was -0.0333.

Take RRIRVRPPRLPRPRPRPANEPRP: the “shrunken log2 fold change” value was -0.174.

On to RRIRPRPPRLPRPRPRPDKYPRP, for which the “shrunken log2 fold change” value was -0.743.

With RRIRFRPPRLPRPRPRPFNFPRP, the “shrunken log2 fold change” value is -1.17.

In the case of RRIRERPPRLPRPRPRPMMMPRP, the “shrunken log2 fold change” value is -0.182.

RRIRGRPPRLPRPRPRPKWVPRP: the “shrunken log2 fold change” value worked out at 0.233.

On to RRIRVRPPRLPRPRPRPTYKPRP, for which the “shrunken log2 fold change” value is -0.512.

Consider RRIRVRPPRLPRPRPRPNQIPRP, for which the “shrunken log2 fold change” value was -0.1.

Consider RRIRYRPPRLPRPRPRPQHHPRP, for which the “shrunken log2 fold change” value was -0.55.

For the sequence RRIRERPPRLPRPRPRPIIPPRP, the “shrunken log2 fold change” value was -0.835.

On to RRIRPRPPRLPRPRPRPVQAPRP, for which the “shrunken log2 fold change” value was -0.013.

For RRIRNRPPRLPRPRPRPIPTPRP, the “shrunken log2 fold change” value is -0.0847.

On to RRIRMRPPRLPRPRPRPLYPPRP, for which the “shrunken log2 fold change” value was -0.151.

In the case of RRIRPRPPRLPRPRPRPHTLPRP, the “shrunken log2 fold change” value is -0.195.

With RRIRKRPPRLPRPRPRPVVIPRP, the “shrunken log2 fold change” value is -0.112.

Take RRIRHRPPRLPRPRPRPIWRPRP: the “shrunken log2 fold change” value was found to be 0.139.

Consider RRIRYRPPRLPRPRPRPQNPPRP, for which the “shrunken log2 fold change” value was -0.483.

RRIRARPPRLPRPRPRPDDGPRP: the “shrunken log2 fold change” value was -0.078.

Regarding RRIRFRPPRLPRPRPRPLSHPRP, the “shrunken log2 fold change” value is -0.512.

With RRIRERPPRLPRPRPRPSSSPRP, the “shrunken log2 fold change” value was 0.307.

For RRIRLRPPRLPRPRPRPRTRPRP, the “shrunken log2 fold change” value was determined as 0.519.

On to RRIRLRPPRLPRPRPRPKCIPRP, for which the “shrunken log2 fold change” value is -0.9.

On to RRIRRRPPRLPRPRPRPDKPPRP, for which the “shrunken log2 fold change” value was found to be 0.583.

Consider RRIRPRPPRLPRPRPRPASRPRP, for which the “shrunken log2 fold change” value was 0.0846.

With RRIRMRPPRLPRPRPRPTMTPRP, the “shrunken log2 fold change” value turned out to be 2.3.

For the sequence RRIRTRPPRLPRPRPRPDVWPRP, the “shrunken log2 fold change” value came out at 0.33.

As for RRIRVRPPRLPRPRPRPAGSPRP, the “shrunken log2 fold change” value turned out to be 0.29.

In the case of RRIRSRPPRLPRPRPRPDCHPRP, the “shrunken log2 fold change” value is -0.0994.

For RRIRGRPPRLPRPRPRPADAPRP, the “shrunken log2 fold change” value came to 1.

In the case of RRIRPRPPRLPRPRPRPHMLPRP, the “shrunken log2 fold change” value was -0.226.

RRIRIRPPRLPRPRPRPCCTPRP: the “shrunken log2 fold change” value was -0.482.

Take RRIRDRPPRLPRPRPRPPQHPRP: the “shrunken log2 fold change” value came to 0.171.

As for RRIRWRPPRLPRPRPRPFFCPRP, the “shrunken log2 fold change” value was found to be 0.104.

In the case of RRIRQRPPRLPRPRPRPNCFPRP, the “shrunken log2 fold change” value was found to be 0.0427.

As for RRIRHRPPRLPRPRPRPVWAPRP, the “shrunken log2 fold change” value is 0.193.

With RRIRYRPPRLPRPRPRPKHYPRP, the “shrunken log2 fold change” value is -0.895.

Consider RRIRKRPPRLPRPRPRPLSPPRP, for which the “shrunken log2 fold change” value is 0.615.

For the sequence RRIRCRPPRLPRPRPRPWSGPRP, the “shrunken log2 fold change” value was -0.0937.

Turning to RRIRQRPPRLPRPRPRPKMCPRP, the “shrunken log2 fold change” value was -0.002.

On to RRIRYRPPRLPRPRPRPWTSPRP, for which the “shrunken log2 fold change” value is -0.039.

RRIRNRPPRLPRPRPRPTSGPRP: the “shrunken log2 fold change” value was found to be 0.211.

Turning to RRIRDRPPRLPRPRPRPEVWPRP, the “shrunken log2 fold change” value came out at 1.75.

Take RRIRWRPPRLPRPRPRPSHCPRP: the “shrunken log2 fold change” value is -0.689.

For the sequence RRIRARPPRLPRPRPRPVWDPRP, the “shrunken log2 fold change” value turned out to be 0.312.

RRIRGRPPRLPRPRPRPLPDPRP: the “shrunken log2 fold change” value stood at 0.926.

For RRIRFRPPRLPRPRPRPSHYPRP, the “shrunken log2 fold change” value is -0.762.
